In patent US20160304610A1 (JOUNCE THERAPEUTICS, published 2016):

Biological target: T1, mouse ICOS, full length, on cells (mouse, UniProt Q9WVS0 21-200)
T1 construct: also called CHO-mICOS; mouse ICOS+ CHO cells
T1 sequence: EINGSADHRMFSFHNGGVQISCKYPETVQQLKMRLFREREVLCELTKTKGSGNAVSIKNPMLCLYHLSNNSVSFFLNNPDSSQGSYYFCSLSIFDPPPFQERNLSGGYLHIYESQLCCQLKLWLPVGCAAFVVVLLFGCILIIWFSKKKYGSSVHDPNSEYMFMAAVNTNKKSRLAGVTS
Experiment: receptor availability assay, flow cytometry on mouse blood T cells after 2.5 mg/kg i.p.
Method: ICOS target engagement may also be assessed as measured by receptor availability assay, for example, as follows. Naive mice were i.p. injected with either the isotype control mIgG2a at 2.5 mg/kg or […] with a mouse IgG2a at 2.5 mg/kg. At various time-points post-injection, blood was collected in EDTA coated microtubes via submandibular draw.
Whole blood was Fc blocked using mouse TruStain (BioLegend) for 5 minutes on ice. Following incubation, 100 μl of 2× concentrated extracellular staining antibody mixture was added to each sample for 30 minutes at 4° C. Samples were spun down and fixed and permeabilized in Foxp3 staining buffer (eBioSciences) for 30 minutes at 4° C. Samples were then spun down and resuspended in intracellular antibody stain for 30 minutes at 4° C. Samples were spun down and resuspended in 0.1% PFA. Samples were analyzed on a BD LSRII Fortessa. Tregs were identified as live CD45+ CD3+ CD4+ FoxP3+. Teff cells were identified as live CD45+ CD3+ CD4+ FoxP3−. CD8+ cells were identified as live CD45+ CD3+ CD8+. Fluorescently labeled 37A10S713-mG2a (DyLight 650 conjugated) was used as the staining reagent for ICOS. Receptor availability at each time point was determined using the following formula: […]

B1: 37A10S713-mG2a (antibody, V domains shown)
VH: EVQLVESGGGLVQPGGSLRLSCAASGFTFSDYWMDWVRQAPGKGLVWVSNIDEDGSITEYSPFVKGRFTISRDNAKNTLYLQMNSLRAEDTAVYYCTRWGRFGFDSWGQGTLVTVSS
VL: DIVMTQSPDSLAVSLGERATINCKSSQSLLSGSFNYLTWYQQKPGQPPKLLIFYASTRHTGVPDRFSGSGSGTDFTLTISSLQAEDVAVYYCHHHYNAPPTFGPGTKVDIK
notes: 37A10S713 VH and VL with a mouse IgG2a; also called 37A10S713 with a mouse IgG2a; 37A10S713-mIgG2a
Q: Does B1 bind?
A: binds
